# Results taken from a protein production outcome set (Wang et al. 2014).
# Assay: label from the status in PepcDB records
row,Sequence,protein production
1,MVIRVTERRVKLASIISYDFLFLVLLSGLLNLIITIFRERLLYVLSSFFQYIVSNPSVALGDALGFIFVLQALLLGLFIGGIVILSISFTINLTRIRSEYEEGVPLSTILRSRIITSSRLGIIANWISERSKRYINASADLESPTEVGVRYVAYFLVSLLVVIPVSLALSIALLSPLPFLLIFFPLTFIFYPEQKYKSRAREIRDDIQDEIPFFVTLITIINASGTTIYEGMRKILQFPIFKAMKKEALLIIRDIEFFGKSPLDALEHRSRLTLNRDYSWFLAGYSSIIRSGGDIEAYLFQKAREFLNWLQFRWRFYSERTSFLGELIVILFLIFPMFLIALAFFTSGAVISFLLIIPILFGTILYTITANNRPRYMDSIGLTKLQLLIGFIAALLTAGVIEIFLDEIYYAIGLGLLSFSLASTIFMYNQIREINDVENSLPQFLRDITEFRKIGYDLSRAIKTLAEEKRYRREFNRVLNEITKQDSMGIPITRAKINTRSWLGKFSLTTVQILIESGAVRPDLLEYLTEFTLNFIQSKKEAFSRMRAYQVLGILTPLLLIATILIAIVIIDSFTIVTLPTNTVGLPQFPNIISQFILSPVILAEMFIFILMSTFAIGLLVTKALYGTVQYMIMPAIGLTLAVLSIHFFSVIEPIILKFFSI,failed
2,MVKDKNDVGPKTVAILGAGGKMGARITRKIHDSAHHLAAIEIAPEGRDRLQGMGIPLTDGDGWIDEADVVVLALPDNIIEKVAEDIVPRVRPGTIVLILDAAAPYAGVMPERADITYFIGHPCHPPLFNDETDPAARTDYHGGIAKQAIVCALMQGPEEHYAIGADICETMWSPVTRTHRVTTEQLAILEPGLSEMVAMPFVETMVHAVDECADRYGIDRQAALDFMIGHLNVEIAMWFGYSPKVPSDAALRLMEFAKDIVVKEDWREALNPAKVKQAAELIAGK,not failed
3,MVKDLSDMSLKELWQLFPIFLVEHKEEWEDWYEEEKERLLHLLPSQSIKSISHIGSTAVPDIWAKNIVDILLEVPEKEDLQDFKKRLLDAGYLLMSEGEKRLSFNKGYTKDGFAEKVFHLHLRYQGDNDELYFRDYLREYPEVAKDYERLKLGLWEKYEHNRDAYTDAKSDFIRKYTQKAKKNDKGKDN,not failed
4,MVKKIVNPINIIVVVMHISVSIYALFVNVPFKAELFKDNVVLCIYVITFYIGFLLLGDFFRERKIFRKRNDGNRESKTISIIGGIFLFAGILLGMSSVMTIYNIKVDASEYSIGRIIFDTIKVDNVKRESTTSKPQGIFVQRSITTIRTEEVDGISVKSNKRVEFKHCYLYGWQVIEGKIYNVKYLPTTHRILSIEEKK,failed
5,MVKLIHTLADHGDDVNCCAFSFSLLATCSLDKTIRLYSLRDFTELPHSPLKFHTYAVHCCCFSPSGHILASCSTDGTTVLWNTENGQMLAVMEQPSGSPVRVCQFSPDSTCLASGAADGTVVLWNAQSYKLYRCGSVKDGSLAACAFSPNGSFFVTGSSCGDLTVWDDKMRCLHSEKAHDLGITCCDFSSQPVSDGEQGLQFFRLASCGQDCQVKIWIVSFTHILGFELKYKSTLSGHCAPVLACAFSHDGQMLVSGSVDKSVIVYDTNTENILHTLTQHTRYVTTCAFAPNTLLLATGSMDKTVNIWQFDLETLCQARSTEHQLKQFTEDWSEEDVSTWLCAQDLKDLVGIFKMNNIDGKELLNLTKESLADDLKIESLGLRSKVLRKIEELRTKVKSLSSGIPDEFICPITRELMKDPVIASDGYSYEKEAMENWISKKKRTSPMTNLVLPSAVLTPNRTLKMAINRWLETHQK,failed
6,MVKVELVYIANSKNCLHYKMDLKQGATVEEALIESNIYSTCPETRELPVGVYGKRVSVDQVLKEGDRIEIYRPLILDPKEKRRKLAQFKK,failed
7,MVKVLTACGNGMGSSMVIKMKVENALRQLGVSDIESASCSVGEAKGLASNYDIVVASNHLIHELDGRTNGKLIGLDNLMDDNEIKTKLEEALK,failed
8,MVKVSIICTNYNKGSWIGEAIDSFLKQETSFPYEIIIVDDASTDHSVHIIKTYQKQYPDLIRAFFNQENQGITKTWSDICKKARGQYIARCDGDDYWIDPFKLQKQIDLLETSPESKWSNTDFDMVDSKGNIIHKDVLKNNIIPFMDSYEKMLALKGMTMASTWLVETKLMLEINDRINKDAVDDTFNIQLELFKKTKLAFLRDSTTVYRMDAESDSRSKDSEKLAQRFDRLLETQLEYIEKYPDSDYKKVLEYLLPKHNDFEKVLAQDGKNVWDNQQITIYLAKGDDQEFSEENCFQFPLQHSGNIQLTFPENIRKIRIDLSEIPSYYRQVSLVNTTVNTELLPTWTNAKVFGYSYYFIAPDPQMIYDLTAQEGQDFKLTYEWFNVDRPSQPDFLANHLVKELDQKKVELKMLSPYKYQYQKAVAERDLYLEQLNEMVVRYNSVTHSRRWTIPTKIINLFRRKK,failed
9,MVKVTYDIPTCEDYCALRINAGMSPKTREAAEKGLPNALFTVTLYDKDRLIGMGRVIGDGGTVFQIVDIAVSKSYQGQDYGSLIMEHIMKYIKNVSVESAYVSLIADYPADKLYAKFGFMPTEPDSGGMYIKY,not failed
10,MVLDVFIEVSLVIFVAFLISLVMRMLKQPLIIGYILTGILVSPYFLNIVRFEESISTLGHYGVTILLFMVGISLNPGYFKEIGKISVITGLGQIVFTFSIGFLISIFLGYSYIESMYISIALTFSSTIIIMKLISDKGDIDKLYGKISIGFLIVQDIVAMAILILISAFNVQSGAGELLFLLLSKIVLILTAIYIFTKYALSNFISYASKNQEFLFLFSLMWCFTLASIFHLLGFSSEIGALIAGIVLAMFPERYEIASKVRPLRDFFLILFFVVLGVQMTFETSGSFLIPAIILSIFVLFGNPIIVMILMGAFGYTKKTGFLAGLTVAQISEFSLIIASLGLRNGHLSQGIVSMITLIGIITIAGSSYFITYSEKIYSLLSNYLSIFEKKTKMSEKDFKNKNTGEIILFGADRTGKNILNVIENSKERFLIIDYNPKIIKDLSKRGYNSIYGDASNLELLNELNFKESKMLISTISDIETDILLIKTILKSNKNAIIIVIAHKIEDAIKLYEEGASYVIMPHFLGSIHASLMIQKYGLNIEEFLKEKSNHMESLKKSQELFRHTK,failed
11,MVLEAFLVKKNEPNWLVVLRTVMPLGLSYIPIGLACGVLLHAAGFNHLLTALISVMVFSGGAQFLIASMLTINAPMTTIILMMFFLELRYALLGSSLSRYLKGQSLPFIFTFAFSMNDENYAVNYLKFATDKHWKPSQALMVEHYSLLFWTVSNIIGSLIGSALTINLQVVDFALTALFIYMAIMQTKSRLIILVAVLCGVLTIGFLVLMKSTLGLVVSTLLASLTGYFIERYLLAHKPESHLLYKVHDPTGQTAMEESDK,failed
12,MVLETVSKTEPPPLLGPRISFSSDLSDGGDFICITPVMCKEDVVKGSVKVSDFEFLSSENVSPQRMLTADELFSEGKLLPFWQVKHSEKLKNITLKTNEEEEAEKRKVEVKKKDQEINNRDNRVTWFIDEDPSPRPPKCTVLWKELLRLKKQRNPSSSPVTARTVSSLSPSSSTSSSSSLEDAAKREEKEKEGKRGKKGLERTRSASMRIRPMIHVPICTPSKSSLPLPPLFPLSLKKNRVERRA,failed
13,MVLEVSDHQVLNDAEVAALLENFSSSYDYGENESDSCCTSPPCPQDFSLNFDRAFLPALYSLLFLLGLLGNGAVAAVLLSRRTALSSTDTFLLHLAVADTLLVLTLPLWAVDAAVQWVFGSGLCKVAGALFNINFYAGALLLACISFDRYLNIVHATQLYRRGPPARVTLTCLAVWGLCLLFALPDFIFLSAHHDERLNATHCQYNFPQVGRTALRVLQLVAGFLLPLLVMAYCYAHILAVLLVSRGQRRLRAMRLVVVVVVAFALCWTPYHLVVLVDILMDLGALARNCGRESRVDVAKSVTSGLGYMHCCLNPLLYAFVGVKFRERMWMLLLRLGCPNQRGLQRQPSSSRRDSSWSETSEASYSGL,not failed
14,MVLKAFFPTCCVSTDSGLLVGRWVPEQSSAVVLAVLHFPFIPIQVKQLLAQVRQASQVGVAVLGTWCHCRQEPEESLGRFLESLGAVFPHEPWLRLCRERGGTFWSCEATHRQAPTAPGAPGEDQVMLIFYDQRQVLLSQLHLPTVLPDRQAGATTASTGGLAAVFDTVARSEVLFRSDRFDEGPVRLSHWQSEGVEASILAELARRASGPICLLLASLLSLVSAVSACRVFKLWPLSFLGSKLSTCEQLRHRLEHLTLIFSTRKAENPAQLMRKANTVASVLLDVALGLMLLSWLHGRSRIGHLADALVPVADHVAEELQHLLQWLMGAPAGLKMNRALDQVLGRFFLYHIHLWISYIHLMSPFVEHILWHVGLSACLGLTVALSLLSDIIALLTFHIYCFYVYGARLYCLKIHGLSSLWRLFRGKKWNVLRQRVDSCSYDLDQLFIGTLLFTILLFLLPTTALYYLVFTLLRLLVVAVQGLIHLLVDLINSLPLYSLGLRLCRPYRLADKPTALQPRGAHLPPPQLWLPPQALLGRPVPQAVPWGAHLPLEAERGQAGLRELLARLAPPHGHSQPSALPGWHQLSWRMSCALWTLLCAPEHGRPCYHTLGLEVIGSEQMWGWPARLAALHHWHCLPWDPLPTCCGHHGGEHSNPRCPEHCPMPTLCTQVQRVRPPQQPQVEGWSPWGLPSGSALAVGVEGPCQDEPPSPRHPLAPSAEQHPASGGLKQSLTPVPSGPGPSLPEPHGVYLRMFPGEVAL,failed
15,MVLLLDYWDQWAEAYRINGKSINTVYRYKLFRKHLKSRFDGRKLNSIRPIEWQKFINDFAAGKDRKEKTTRKRPRERSKDIVTKMNSYVRGMVKAAINERILFSDFTFGTKTSGVRSSGKVKVLEHHHHHH,failed
16,MVLLMAVSLSFAQMKNVKEAKSIASDVKPNFNQAEKLINEAIKNPETKDLPDTWDVAGFIQKRFIEEERDKKGVLKQPFDTLKAYNSILKMFEYYTKCDDLAQVPNEKGKIKNKYRKANASTILVERPNLINGGIQFFNLDKNKEALQFFATYVESASYPMLAEQNLAKTDTLLAQIAYYATLAADRVGDKDAIIKYAPAALDDKDGGKFAMQLMADAYKAKGDTAAWVKSLEEGILKFPGNDYFFANLVDYYTSSNQASKAMEFADRMLSTDANNKLYLYVKAYLYHNMKEYDNAIEFYKKAIAADPEYAEAYSNVGLVYLMKAQDYADKATTDINDPKYAEAQATVKKFYEEAKPFYEKARALKPDQKDLWLQGLYRVYYNLNMGPEFEEIDKMMK,failed
17,MVLSKTASKSDDSIHSTFASRYVRNSISRFEIPKNSIPKEAAYQIINDELKFDGNPRLNLASFVTTWMEPECDKLMMESINKNNVEMDQYPVTTDLQNRCVNMIARLFNAPLGDGEAAIGVGTVGSSEAVMLAGLAFKRQWQNKRKALGLPYDRPNIVTGANIQVCLEKFARYFEVELKEVKLREGYYVMDPDKAVEMVDENTICVVAILGSTLTGEFEDVKLLNDLLVEKNKKTGWDTPIHVDAASGGFIAPFLYPDLEWDFRLPLVKSINVSGHKYGLVYAGIGWVVWRTKTDLPDELIFHINYLGADQPTFTLNFSKGSSQVIAQYYQLIRLGFEGYRNVMDNCRENMMVLRQGLEKTGRFNIVSKENGVPLVAFSLKDSSRHNEFEVAEMLRRFGWIVPAYTMPADAQHVTVLRVVIREDFSRTLAERLVADFEKVLHELDTLPARVHAKMASGKVNGVKKTPEETQREVTAYWKKFVDTKTDKNGVPLVASITNQ,failed
18,MVLTKKYDKLGHILLNVFIVFCTFEVFIKGVLTLQQESSSGVNAIKIGILLFMIFAIVLKGKIKGMTTKIKGIMFIYLVFFIVLGLKILSINQMSDITGWLSDNNNLNYIFSFVCFIIILNIDIKRESVINTLIVSSTVVMVISFIFFIKNNYYGLAAPDIIQAYSMGFLNKTRMLSIFASPNHAGLYFVMVYLIVDFRGQKNLAMLFKLYKFLLIVCIMLTLSRTAIGILLLYIIIKIIRSKNAKSVVRFGIISLMVVLIGITLWIAISKYNVYFFSASYIKADNRWIKWQVAIEYIKKYWAIGAPFNIKVQMYAYVNSAITSVEFSDNLFLEIASRFGVPLIACIFIFMIKNLRRAFNEKKITDITKILVFIISSITTGSIHFTIPMILFIVYCDKFD,failed
